{"source": "patent US12466859B2", "about": "“Desmoglein 2 (DSG2) binding proteins and uses therefor” (UNIVERSITY OF WASHINGTON THROUGH ITS CENTER FOR …, priority 2013, dated 2025)", "molecules": {"B1": {"name": "JO-4 (protein)", "chain": "MKVSALKEKVSALKEKVSALKEKVSALKEKVSALKEGSGGGSGGGSGGGSNSIALKNNTLWTGPKPEANCIIEYGKQNPDSKLTLILVKNGGIVNGYVTLMGASDYVNTLFKNKNVSINVELYFDATGHILPDSSSLKTDLELKYKQTADFSARGFMPSTTAYPFVLPNAGTHNENFIFGQCYYKASDGALFPLEVTVMLNKRLPDSRTSYVMTFLWSLNAGLAPETTQATLITSPFTFSYIREDD"}}, "tested_on": "TNBC MDA-MB-231 tumors", "assay": "Enhancement of nab-paclitaxel/cetuximab therapy in orthotopic TNBC MDA-MB-231 tumors", "assay_type": "in vivo, CB17 SCID-beige mice", "details": "2 mg/kg i.v. 1 hour before cetuximab 10 mg/kg i.p. and nab-paclitaxel 5 mg/kg i.v., weekly", "protocol": "FIG. 10A-10C. Combination of affinity-enhanced JO-1 versions with chemotherapy. FIG. 10A) Enhancement of irinotecan (I) therapy. The experimental setting was the same as in FIG. 5B. […] N=5. […] Mammary fat pad tumors were established from primary ovarian cancer ovc316 cells. Treatment was started when tumors reached a volume of 100 mm^3. Mice were injected intravenously with 2 mg/kg JO-1 or with 0.5 mg/kg JO-4, followed by an intravenous injection of PEGylated liposomal doxorubicin (PLD) (1 mg/kg) one hour later. Treatment was repeated weekly. […] A total of 4×10^6 TNBC MDA-MB-231 cells were injected into the mammary fat pad of CB17 SCID-beige mice. JO-4 (2 mg/kg) was intravenously injected 1 hour before the application of cetuximab (C) (10 mg/kg, i.p.) and nab-paclitaxel (nab-P) (5 mg/kg, i.v.). Treatment was given weekly. N=10 P<0.01 at day 25 for nab-P+C vs JO-4+nab-P+C.\nA549, MDA-MB-231, and ovc316 xenograft tumors were established by injection of the corresponding tumor cells into the mammary fat pad (1:1 with Matrigel) of CB17 mice. TC1-DSG2 tumors were established by subcutaneous injection of TC1-DSG2 cells into DSG2 transgenic mice. […] Tumor volumes were measured three times a week. […]", "note": "Entries after “also recorded” stand apart in the source; their conditions may differ.", "data": [{"molecule": "B1", "values": [{"measurement": "Enhancement of nab-paclitaxel/cetuximab therapy", "result": "significantly increased; also recorded: enhances therapy"}]}]}
